According to paper PMC3648548:

Molecular target: GLIC NQN mutant (D91N, E177Q, D178N), pentameric ligand-gated ion channel from Gloeobacter violaceus (Gloeobacter violaceus)
Assay: crystal structure; GLIC-NQN mutant in 0.01% (w/v) n-tetradecyl-β-D-maltoside, ~10 mg/ml; crystallization conditions as for GLIC and GLIC-ketamine; molecular replacement with 4F8H; five subunits in the asymmetric unit

stoichiometry N: 5
Substance: GLIC NQN mutant (D91N, E177Q, D178N), pentameric ligand-gated ion channel from Gloeobacter violaceus (natural protein)
